Laboratory results taken from a protein production outcome set (Wang et al. 2014).

Assay: label from the status in PepcDB records
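Also: failed if final PepcDB status was selected cloned or expressed and not failed if soluble or beyond.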

Sequence	protein production
MQKGNIRIAIDKGGTFTDCVGNIGTGKQEHDTVIKLLSVDPKNYPDAPLEGIRRLLEVLEHKTIPRGIPLDISNVRSLRMGTTLATNCALERNGERCAFITTKGFKDSLLIGDQTRPDIFNLNIKKVVPLYDTVVEIDERVTLEDFSEDPYFTKSSPNEQEGILEGNSGEMVRVIKKPDESSVRSILKVLYASGIKSIAIAFLHSYTFPDHERIVGNIAREIGFSHVSLSSEVSPMIKFLPRAHSSVADAYLTPVIKKYLNSISAGLSHAEDTHIQFMQSDGGLVDGGKFSGLKSILSGPAGGVIGYSSTCYDKNNNIPLIGFDMGGTSTDVSRYGDGRLEHVFETVTAGIIIQSPQLDIHTVAAGGSSILSWKNGLFRVGPDSAAADPGPAAYRKGGPLTITDANLFLGRLVPEFFPKIFGPNEDESLDLETTTLKFRELTDVINKDLNSNLTMEEVAYGFIKVANECMARPVRAITEAKGHVVSQHRLVSFGGAGGQHAIAVADSLGIDTVLIHRYSSILSAYGIFLADVIEENQEPCSFILGEPETILKVKKRFLELSKNSIKNLLSQSFSREDIVLERYLNLRYEGTETSLMILQKYDDQWNFREWFSEAHKKEFGFSFDDKRIIIDDIRIRAIGKSGVRKEKTVDEQLIEISHFKKADVSKDASFTQKAYFDNKWVDTAVFKIDDLPAGTIIEGPAILADGTQTNIILPNSQATILNSHIFIKINQKAAKTLSKSGYELDIDPILLSIFSHRFMDIALQMGTQLRKTSVSTNVKERLDFSCALFDSKGNLVANAPHVPVHLGSMSTCISAQAKLWEGKLKPGDVLITNHPDIGGTHLPDITVITPSFSSTGELIFYVASRAHHADIGGILPGSVPPNSKELYEEGTAIYSELVVKEGIFQEELIYKLFVEDPGKYPGCSGSRRFSDNISDLKAQVAANTKGIQLIGSLTKEYDLATILKYMAAIQTNASESIKKMLAKMVEHFGTTKFSGEDRLDDGSLIKLQVIIRPEKEEYIFNFDGTSPQVYGNLNAPEAITNSAILYCLRCLVGEDIPLNQGCLKPLTIKIPAGSLLSPRSGAAVVGGNVLTSQRVTDVILKTFNVMADSQGDCNNFTFGTGGNSGNKTDKQIKGFGYYETICGGSGAGADSWRGSGWNGSDAVHTNMTNTRMTDTEVFERRYPVLLKEFSIRRGSGGKGKYTGGNGVVRDVQFRKAVTASILSERRVIGPHGIKGGQDGSRGENLWVRHSTGALINVGGKNTIYAQPGDRFIIKTPGGGGFGQYKD	failed
MQKIIDDSLELAKKLQDSISNHLSDQEKAFHSKMQKLLNNPENKVMLIELMDRSFRCLDNKARFEMIEHVLDKYKSREIFSPFEKVLLMGFLSFGKMLPDMSVPFFVNKIRSDTKAMVLDQEESQLKERILKRKNEKIILNVNFIGEEVLGEEEANARFEKYSQALKSNYIQYISIKITTIFSQINILDFEYSKKEIVKRLDALYALALEEEKKQGMPKFINLDMEEFRDLELTVESFMESIAKFDLNAGIVLQAYIPDSYEYLKKLHAFSKERVLKGLKPIKIRFVKGANMESEETIASVKDWALPTFSNKQDTDSNYNKMLDFVLEGDNYKYIHIGAASHNIFEIAYVYTRIHAINDPVVLEHFSFEMLEGMSLQASQELKEMHKLILYAPVCDEAHFNNAIAYLVRRLDENTSSDNFMKAFFNLKVGTSEWKDQEQRFLNSLKGIATLDNATHRTQDRNAKQSGHTTYPNHSFKNESDTDFILKANREWAKKVREKMRNAPILELYPEMDGRFEDPNLTPLEVFDRIHHKKIASVHLADKEAILKALEVAKSDKSRFSQKSFTEIHALMSQTAQLFRERRGDLIGISALEVGKTFAETDAEVSEAIDFLEFYPYSLRVLQEQNTKTQFTPKGVGVVIAPWNFPVGISVGTIAAPLATGNRVIYKPSSLSSVTGYKLCECFWDAGVPRDALIYLPSKGSDISEHLLRDESIQFAILTGGEDTAYKMLKANPTLALSAETGGKNATIVSKMADRDQAIKNVIHSAFSNSGQKCSATSLLVLEKEVYEDENFKKTLIDATLSLSVGDPFDFKNKIGALADKPNEKVIKAIDELKSYENYEIPVSFVNDNPYLMKPSIKYGTKKGDFTHQTELFTPILSVMEAKDLDEAIEIANSTGYGLTSALESLDEREWEYYLERIEAGNIYINKPTTGAIVLRQPFGGVKKSAVGFGRKVGIFNYITQFVNICQEEEDENALKNPLSEALENLTQKGYDEHTHELKRAIFMAKSYAYHYKHEFSQTKDYVKIRGEDNLFSYTKVKSVGYRITEKDTLSDMLGVALACLISQIPLTLSIENERTNKDLTFFLECLKALQASAPIVYESLQKFSEKLNTFNRVRYLKSDLDLLHEQASALGMVLATAKPCLNGRFELLYYHLERSVSISYHRYGNLGSRVLRQPTCHKSCCAEK	failed
MQKNFSVVKKYVNLILDIVLGILGVFLLVFMASYLVDLATYLMKPMTPDNFSVIMQEIISFFMLFEFIMMILRYIQEGHHIPIRYLILICLTAILRQLMVAHGDGLQTLLLSLSILLLVVVLFILGLNGSKFYTLGKAKVEEDHEQDFHH	failed
MQKNLDSLLENLRAEIDALDNELSDLLDKRLEIALKIALIKQESPIYCPKREQEILKRLSQRDFKHLNGEILTGFYTEVFKISRKFQENALKELKK	failed
MQKPAVTVMVKAARLAGNVLLRGINKLDALNVVQKGRMDYASEVDADAEKVIIKELKRGYPEYAVFGEEGGVQGGKSGRYTWVIDPLDGTSNYLRGFPHYCVSIALVENGEPTDAVIFDPLRNELFTASRGAGAVLNDRRIRIAERKDLEGAMVHTGFPPRERARASAQLKCVDALLVQAEDVRRTGSAALDLAYVACGRADAYFEAGVKAWDIAAGVLLVREAGGRVCDYKGATPPRMDNMGPETQQIVAGNIKISDALQKVIVNTGYAREFDAKF	failed
MQKPHLLITSAGRRAKLVEYFVKEFKTGRVSTADCSPLASALYMADQHYIVPKIDEVEYIDHLLTLCQDEGVTALLTLIDPELGLLAQATERFQAIGVTVIVSPYAACELCFDKYTMYEYCLRQGIAHARTYATMASFEEALAAGEVQLPVFVKPRNGSASIEVRRVETVEEVEQLFSKNTDLIVQELLVGQELGVDAYVDLISGKVTSIFIKEKLTMRAGETDKSRSVLRDDVFELVEHVLDGSGLVGPLDFDLFDVAGTLYLSEINPRFGGGYPHAYECGVNFPAQLYRNLMHEINVPQIGQYLDDIYMLKHDTVTLISAAELQKIKR	not failed
MQKVEGIIFDMDGVLFDSERISLEFWMETFEKYGYTMTKEIYTSVMGRNRKGIIEGLTDIYDSSVPIIDLYDEKTKNMIEFMERKGAPIKLGVNELISFLKENGYKMAVATSTKRERAVKRLAKANLKDYFDAIVCGDDVVNSKPNPEIFLKAAKKINVNPKNCIVIEDSPMGVEAAYNGGIRCINVPDLKEPDEQIKSQSHKILENLLEVREYLKSLNSKECHNL	failed
MQLAINKIYRRIFISMDTGVSDHGIEIIGVDPIPGTSRIMGPWKMTVFWSMASASALTPLIGYLLYPLGLIDMLIAISIAFLIGFVPVGIFSEMGRTIPVPAMIISRKTLGYASSSVMSLIFTFVNLGWFGLNDITGGLILASVTSSSPIIWISFMAIVQIMLVLFGAKYLEKFYRYTAILLVFSYGILTYLLFRVYRPDMYAVLHPSTAVNWGSAIGLVLAFSILAWAYKVSTISRFARKREAGEPALERSGFFMAPSIGIIVPVYVMGSLGLISEAAAENWNLAAVRFSGLGSIGGAVAIIASIGASLAIIHTNSMNLYPATADLLSAIEGLFNKRLRKFAQPISTAILGTLGAVLAYAGILNYASGFLNLSGSIIFPFTFVLIADWFMMNRHSANSADFYSIPKNGLGNVNLAGISGLIVGVILNLIHINLLNALFLYVPQDIFGSLAGTAVFILVLKAVQKKQAAQEENRSDTVAE	failed
MQLEHILRSYARYAPVYDHTFGWLLNFRGRSLAAHLTNRRPGRILEVGVGTGISLPFYRKEHQVHGIDISPHMLERARRRVHSKNLDHVVRLEIMDAREMAFPDDYFDAVVAAYVMSVVPEPQRVLREIERVCKAGGDVIIVNHFAADKKGTRRHFEALLSPLSHKLGWRPDMPIDEILAHTSLHEVRRQTLPPMGLFTLLHLKKASPDFADPARP	failed
MQLESLYQFLYSVVMSYLVSLKYVSFVLISVILVFRKIIRTVKGGRFRRYSIFIPPILYILFSIAVSYGTSLLGIVLSLIAFVFGIYISFHTTRSIVFFSKNNILYYKRPGWVVAIWSLAFLTRLALILFFPSFNGDLFTVLLFLASGLIIGESFWIVRKNREILSTVRMPKIHL	failed
MQLIGDTPITYRRYSMSSSQNALVLIARILLSFIFIYSGFGKLTDPAGTAGMIAGAGMPAATALAYLAGLFELVAGLAILAGFQTKIAAWALAVFCVFTGLVFHSGTVAVPGWPEPALGWINTLNGIMMMKNITLAGAYILLATFGAGAYSVDAKRGFVAARA	failed
MQLQTEVKKQPSKRKFKMPDAYVLLFFIALLCAIATYFVPAGEFKRVTNRTVTTTIPGSYHSVPQSPVGFVSFFTAIEKGMTLAAPIIFLILFTGGAIAILEKTGALDGLIYHVINKFRNQQFLFICIVAALFSILGTTGIIVNSVIGFIPIGIIVARTLKWDAIVGVAIIYLGTYAGFNATILSPSPLGISQKIAELPMFSGIGLRTAIYLSFLLATILYINWYVKRLKKSNKGSILGDNWFPSNALSSGKEAQKTEVPWTIRHKLILLVSALSLITFLIGAFRLHWTDAEMTATFIFIAITAGIIGGMKANDIASTFLAGCQNLIYGALIVGMARCISVILEQGKLLDTIVNQLAQSLEGQSPVFGVIGMYVSSAALHFLISSGTGESVIFIPILAPLADFMHITRQVTVQAVMLGEGVVNCLNPTSGVLMGVLAASGISYGKWIRFMAPLAFIWFIIGLIFLIVGVNIEWGPY	failed
MQLTSENYYSQEANKEYMSVSGYKDFAGTYGKMPCEFYGMEKLNGRWEDEKSTALLVGSYVDSYFEGSLDQFKKDNPEIFTQKGELKANFKQAEEIIARIERDEYFMKYMSGQKQVIMTGELFGAKWKIKMDSYIPGVAIVDLKVMASITDLKWVKDIGYLDFVRYWGYDIQGAVYQEIVRQNTGEKLPFFIAGATKQTEPDIRIIHVTDNYLQEALHMVEMNMPRILRVKNGEVEPDRCELCDCCRHNRVLKKPISIMDLTAGI	not failed
MQMSEKFKQIRARLRLPVLVAPMLRISGPALVAASCSNGVIGSFPTVNARTPDQLDRWIDEIKQAVSAAGAYDAPYCANILARSDPDKLQADLKILIKHKVEIVLVSTGAPEKYVKPLQDIGCFVIADVASIRHARKALQQGVDGLALLTAGAGGQTGWANGFAFVRAIRDFYDGPLLLAGGVSDGQALWAARTLGCDLGLMGTRFIGTQECDASDGYKAMLVDSSIDDVVLTRGISGIDANFLRPSIIACGLDPQELVAPVSPERAREMFSSYADGMRGPKRWVDLWSAGHTVSGVKVVQSVSEVVDQLAVEYTRAQRATRAPLADADDPAI	failed
MQNIAVHEASTLMRYISNAIGSIRDPQELFRTVTDKLRLVFEFDSAFIITLDRDRRFINVVFEMVRFDLPDTIQRKKRPVAGSWIESHLGDEGVSVVAIEGEMDRYPADFPVPRMLYDLGMRQVVLSPLRSGGKVIGFLNFVSREQKQWKESDKELLSTLSSPVAVALSSALAYEELRQREA	failed
MQNNKTKLLDEVATYYAEKLAEHGDTPRGVDWNGEESQTIRFEQLCKVIDPKKMPGFSLNDLGCGYGALLDYLRDKYAACIYLGVDVSHEMIKAARQRHTAANQARFITSTEPDQVADYGVASGIFNVRLERTDAEWFDYLLGTLDVLNRTSSLGFAFNCLTSYSDEDKKRDYLYYADPCRLFDLCKRRYSRQVALLHDYGLYEFTILIRKALEHHHHHH	failed
MQPDTQEIVVDEVFPHAPETIWKTLTTAELMGRWLMMPAGFEPIEGKRFTYQTTPAGDWDGTIHCQVLEVKPNERLTYAWKGGHAGNTGYGSPLDTVVTFILSRAGNGTRLRLVHSGFVLPKNETAYRKMGEGWKKVVKNIGALAGGEDLEHHHHHH	failed
MQPIELAELLTSQAAVLTSLVVIGLILCFIGYKIFRVYSAVIGLFIGQLVGIYITINYYENALIVILASAIVGALLFALIDELGLIVTGAAFGYFVGVYLLPEYQVYAFVLAALFALINLFIEKPLTVLITSVIGASAIALAVHMGITGTHIYDILNDPKKVFDAIFSNAYFDLLWFTLVLTGIITQYVTYKEEREEEE	failed
